In IntAct's records for PubMed 19129478:

B1: Neutrophil cytosol factor 1 (Homo sapiens), P14598 (parent)
chain: MGDTFIRHIALLGFEKRFVPSQHYVYMFLVKWQDLSEKVVYRRFTEIYEFHKTLKEMFPIEAGAINPENRIIPHLPAPKWFDGQRAAENRQGTLTEYCSTLMSLPTKISRCPHLLDFFKVRPDDLKLPTDNQTKKPETYLMPKDGKSTATDITGPIILQTYRAIANYEKTSGSEMALSTGDVVEVVEKSESGWWFCQMKAKRGWIPASFLEPLDSPDETEDPEPNYAGEPYVAIKAYTAVEGDEVSLLEGEAVEVIHKLLDGWWVIRKDDVTGYFPSMYLQKSGQDVSQAQRQIKRGAPPRRSSIRNAHSIHQRSRKRLSQDAYRRNSVRFLQQRRRQARPGPQSPGSPLEEERQTQRSKPQPAVPPRPSADLILNRCSESTKRKLASAV

Variants of: B1
Conditions: with ncf2_human NCF2, P19878
Sequence of ncf2_human NCF2, P19878 (P19878 whole entry): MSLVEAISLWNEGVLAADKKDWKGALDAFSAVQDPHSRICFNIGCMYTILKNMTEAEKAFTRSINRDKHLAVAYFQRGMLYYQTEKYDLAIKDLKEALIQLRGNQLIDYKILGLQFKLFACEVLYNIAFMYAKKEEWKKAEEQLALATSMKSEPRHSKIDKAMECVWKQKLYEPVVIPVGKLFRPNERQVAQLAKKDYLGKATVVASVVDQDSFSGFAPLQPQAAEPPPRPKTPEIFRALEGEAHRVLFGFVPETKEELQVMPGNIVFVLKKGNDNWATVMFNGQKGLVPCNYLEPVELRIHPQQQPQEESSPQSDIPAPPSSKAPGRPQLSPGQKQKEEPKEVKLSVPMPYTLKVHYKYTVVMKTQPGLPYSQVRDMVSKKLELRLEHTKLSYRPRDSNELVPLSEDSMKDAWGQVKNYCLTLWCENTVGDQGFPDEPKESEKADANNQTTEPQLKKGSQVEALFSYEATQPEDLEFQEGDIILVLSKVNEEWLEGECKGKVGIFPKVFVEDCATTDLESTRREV

Variant	effect of a mutation on the interaction
MGDTFIRHIALLGFEKRFVPSQHYVYMFLVKWQDLSEKVVYRRFTEIYEFHKTLKEMFPIEAGAINPENRIIPHLPAPKWFDGQRAAENRQGTLTEYCSTLMSLPTKISRCPHLLDFFKVRPDDLKLPTDNQTKKPETYLMPKDGKSTATDITGPIILQTYRAIANYEKTSGSEMALSTGDVVEVVEKSESGWWFCQMKAKRGWIPASFLEPLDSPDETEDPEPNYAGEPYVAIKAYTAVEGDEVSLLEGEAVEVIHKLLDGWWVIRKDDVTGYFPSMYLQKSGQDVSQAQRQIKRGAPPRRSSIRNAHSIHQRSRKRLSQDAYRRNSVRFLQQRRRQARPGPQSPGSPLEEERQTQRSKPQPAVPPRPSADLILNRCSESTKRELASAV [K385E]	decreasing interaction
MGDTFIRHIALLGFEKRFVPSQHYVYMFLVKWQDLSEKVVYRRFTEIYEFHKTLKEMFPIEAGAINPENRIIPHLPAPKWFDGQRAAENRQGTLTEYCSTLMSLPTKISRCPHLLDFFKVRPDDLKLPTDNQTKKPETYLMPKDGKSTATDITGPIILQTYRAIANYEKTSGSEMALSTGDVVEVVEKSESGWWFCQMKAKRGWIPASFLEPLDSPDETEDPEPNYAGEPYVAIKAYTAVEGDEVSLLEGEAVEVIHKLLDGWWVIRKDDVTGYFPSMYLQKSGQDVSQAQRQIKRGAPPRRSSIRNAHSIHQRSRKRLSQDAYRRNSVRFLQQRRRQARPGPQSPGSPLEEERQTQRSKPQPAVPPAPSADLILNRCSESTKRKLASAV [R368A]	decreasing interaction
MGDTFIRHIALLGFEKRFVPSQHYVYMFLVKWQDLSEKVVYRRFTEIYEFHKTLKEMFPIEAGAINPENRIIPHLPAPKWFDGQRAAENRQGTLTEYCSTLMSLPTKISRCPHLLDFFKVRPDDLKLPTDNQTKKPETYLMPKDGKSTATDITGPIILQTYRAIANYEKTSGSEMALSTGDVVEVVEKSESGWWFCQMKAKRGWIPASFLEPLDSPDETEDPEPNYAGEPYVAIKAYTAVEGDEVSLLEGEAVEVIHKLLDGWWVIRKDDVTGYFPSMYLQKSGQDVSQAQRQIKRGAPPRRSSIRNAHSIHQRSRKRLSQDAYRRNSVRFLQQRRRQARPGPQSPGSPLEEERQTQRSKPQPAVAPRPSADLILNRCSESTKRKLASAV [P366A]	disrupting interaction
MGDTFIRHIALLGFEKRFVPSQHYVYMFLVKWQDLSEKVVYRRFTEIYEFHKTLKEMFPIEAGAINPENRIIPHLPAPKWFDGQRAAENRQGTLTEYCSTLMSLPTKISRCPHLLDFFKVRPDDLKLPTDNQTKKPETYLMPKDGKSTATDITGPIILQTYRAIANYEKTSGSEMALSTGDVVEVVEKSESGWWFCQMKAKRGWIPASFLEPLDSPDETEDPEPNYAGEPYVAIKAYTAVEGDEVSLLEGEAVEVIHKLLDGWWVIRKDDVTGYFPSMYLQKSGQDVSQAQRQIKRGAPPRRSSIRNAHSIHQRSRKRLSQDAYRRNSVRFLQQRRRQARPGPQSPGSPLEEERQTQRSKPQPAVPPRPSADLILNRCSESTERKLASAV [K383E]	decreasing interaction
MGDTFIRHIALLGFEKRFVPSQHYVYMFLVKWQDLSEKVVYRRFTEIYEFHKTLKEMFPIEAGAINPENRIIPHLPAPKWFDGQRAAENRQGTLTEYCSTLMSLPTKISRCPHLLDFFKVRPDDLKLPTDNQTKKPETYLMPKDGKSTATDITGPIILQTYRAIANYEKTSGSEMALSTGDVVEVVEKSESGWWFCQMKAKRGWIPASFLEPLDSPDETEDPEPNYAGEPYVAIKAYTAVEGDEVSLLEGEAVEVIHKLLDGWWVIRKDDVTGYFPSMYLQKSGQDVSQAQRQIKRGAPPRRSSIRNAHSIHQRSRKRLSQDAYRRNSVRFLQQRRRQARPGPQSPGSPLEEERQTQRSKPQAAVPPRPSADLILNRCSESTKRKLASAV [P363A]	decreasing interaction
